Biological target: fibrin (Homo sapiens) (UniProt P02671)
Test: ELISA

fibronectin, P02751, sequence (P02751 32-2477): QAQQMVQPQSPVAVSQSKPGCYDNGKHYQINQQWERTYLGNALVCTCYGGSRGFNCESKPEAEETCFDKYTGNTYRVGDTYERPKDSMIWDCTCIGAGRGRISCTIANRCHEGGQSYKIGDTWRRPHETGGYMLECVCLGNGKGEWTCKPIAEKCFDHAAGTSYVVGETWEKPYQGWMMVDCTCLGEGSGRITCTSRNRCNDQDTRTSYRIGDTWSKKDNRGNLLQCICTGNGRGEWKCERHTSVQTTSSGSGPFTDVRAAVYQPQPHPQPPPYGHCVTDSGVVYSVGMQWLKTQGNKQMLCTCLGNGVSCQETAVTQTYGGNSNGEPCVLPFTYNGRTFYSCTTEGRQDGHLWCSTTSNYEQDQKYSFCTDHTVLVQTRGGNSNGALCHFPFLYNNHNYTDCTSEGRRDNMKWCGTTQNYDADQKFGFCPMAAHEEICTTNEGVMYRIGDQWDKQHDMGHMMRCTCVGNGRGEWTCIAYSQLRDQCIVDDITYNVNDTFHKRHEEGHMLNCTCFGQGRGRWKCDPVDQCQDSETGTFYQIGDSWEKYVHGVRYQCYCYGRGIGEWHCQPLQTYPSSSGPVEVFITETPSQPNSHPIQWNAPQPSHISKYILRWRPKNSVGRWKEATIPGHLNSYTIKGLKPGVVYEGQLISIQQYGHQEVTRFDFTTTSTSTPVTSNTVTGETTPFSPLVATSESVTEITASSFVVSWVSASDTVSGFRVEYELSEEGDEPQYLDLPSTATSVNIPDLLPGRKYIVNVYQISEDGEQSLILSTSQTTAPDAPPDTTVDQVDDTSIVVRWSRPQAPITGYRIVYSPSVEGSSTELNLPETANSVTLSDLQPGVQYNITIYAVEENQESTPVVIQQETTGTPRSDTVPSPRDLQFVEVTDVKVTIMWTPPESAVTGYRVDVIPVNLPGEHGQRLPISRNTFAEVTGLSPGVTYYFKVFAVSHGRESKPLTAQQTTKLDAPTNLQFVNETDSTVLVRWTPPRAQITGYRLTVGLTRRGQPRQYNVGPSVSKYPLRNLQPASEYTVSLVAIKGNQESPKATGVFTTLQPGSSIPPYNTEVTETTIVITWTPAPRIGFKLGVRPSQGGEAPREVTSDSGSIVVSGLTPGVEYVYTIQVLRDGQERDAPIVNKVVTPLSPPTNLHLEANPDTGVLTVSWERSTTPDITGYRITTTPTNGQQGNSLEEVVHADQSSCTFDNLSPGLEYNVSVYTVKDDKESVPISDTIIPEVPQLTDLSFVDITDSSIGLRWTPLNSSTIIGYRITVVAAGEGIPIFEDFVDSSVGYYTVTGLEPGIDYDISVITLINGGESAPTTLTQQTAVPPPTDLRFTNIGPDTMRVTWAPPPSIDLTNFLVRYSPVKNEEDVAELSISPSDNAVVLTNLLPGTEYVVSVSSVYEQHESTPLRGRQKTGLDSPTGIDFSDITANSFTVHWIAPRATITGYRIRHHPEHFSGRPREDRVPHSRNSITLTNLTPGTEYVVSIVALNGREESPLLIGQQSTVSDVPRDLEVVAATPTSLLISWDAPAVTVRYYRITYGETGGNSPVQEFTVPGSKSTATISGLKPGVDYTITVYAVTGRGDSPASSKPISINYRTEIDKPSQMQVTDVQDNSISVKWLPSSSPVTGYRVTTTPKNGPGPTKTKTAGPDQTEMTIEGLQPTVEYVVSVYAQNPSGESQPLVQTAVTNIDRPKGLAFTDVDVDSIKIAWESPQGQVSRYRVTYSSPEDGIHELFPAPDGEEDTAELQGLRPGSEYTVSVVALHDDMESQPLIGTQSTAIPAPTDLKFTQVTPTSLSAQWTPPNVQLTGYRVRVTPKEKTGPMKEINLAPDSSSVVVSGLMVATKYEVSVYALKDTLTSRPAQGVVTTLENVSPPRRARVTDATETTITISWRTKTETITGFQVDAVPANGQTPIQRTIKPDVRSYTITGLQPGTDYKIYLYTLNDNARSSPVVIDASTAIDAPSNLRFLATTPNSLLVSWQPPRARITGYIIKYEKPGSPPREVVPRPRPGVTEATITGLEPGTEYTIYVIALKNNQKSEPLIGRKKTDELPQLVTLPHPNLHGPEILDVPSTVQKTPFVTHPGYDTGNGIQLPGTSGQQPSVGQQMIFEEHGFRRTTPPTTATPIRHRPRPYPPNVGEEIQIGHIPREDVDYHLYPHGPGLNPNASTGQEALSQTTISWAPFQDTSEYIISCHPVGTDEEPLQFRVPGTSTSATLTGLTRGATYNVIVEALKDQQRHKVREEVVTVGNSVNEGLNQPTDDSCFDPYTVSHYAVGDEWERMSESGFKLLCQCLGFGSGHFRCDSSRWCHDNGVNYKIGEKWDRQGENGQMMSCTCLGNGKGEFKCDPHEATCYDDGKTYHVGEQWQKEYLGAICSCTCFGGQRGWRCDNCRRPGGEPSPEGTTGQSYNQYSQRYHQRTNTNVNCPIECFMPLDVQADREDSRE

IC50: 4.9 nM
Substance: fibronectin, P02751
